For the experiment, the target named is T1, recombinant Factor VIII (CSL627, rVIII-SingleChain) (Homo sapiens (Human), UniProt P00451 20-2351).
T1 construct: also called FVIII
T1 sequence: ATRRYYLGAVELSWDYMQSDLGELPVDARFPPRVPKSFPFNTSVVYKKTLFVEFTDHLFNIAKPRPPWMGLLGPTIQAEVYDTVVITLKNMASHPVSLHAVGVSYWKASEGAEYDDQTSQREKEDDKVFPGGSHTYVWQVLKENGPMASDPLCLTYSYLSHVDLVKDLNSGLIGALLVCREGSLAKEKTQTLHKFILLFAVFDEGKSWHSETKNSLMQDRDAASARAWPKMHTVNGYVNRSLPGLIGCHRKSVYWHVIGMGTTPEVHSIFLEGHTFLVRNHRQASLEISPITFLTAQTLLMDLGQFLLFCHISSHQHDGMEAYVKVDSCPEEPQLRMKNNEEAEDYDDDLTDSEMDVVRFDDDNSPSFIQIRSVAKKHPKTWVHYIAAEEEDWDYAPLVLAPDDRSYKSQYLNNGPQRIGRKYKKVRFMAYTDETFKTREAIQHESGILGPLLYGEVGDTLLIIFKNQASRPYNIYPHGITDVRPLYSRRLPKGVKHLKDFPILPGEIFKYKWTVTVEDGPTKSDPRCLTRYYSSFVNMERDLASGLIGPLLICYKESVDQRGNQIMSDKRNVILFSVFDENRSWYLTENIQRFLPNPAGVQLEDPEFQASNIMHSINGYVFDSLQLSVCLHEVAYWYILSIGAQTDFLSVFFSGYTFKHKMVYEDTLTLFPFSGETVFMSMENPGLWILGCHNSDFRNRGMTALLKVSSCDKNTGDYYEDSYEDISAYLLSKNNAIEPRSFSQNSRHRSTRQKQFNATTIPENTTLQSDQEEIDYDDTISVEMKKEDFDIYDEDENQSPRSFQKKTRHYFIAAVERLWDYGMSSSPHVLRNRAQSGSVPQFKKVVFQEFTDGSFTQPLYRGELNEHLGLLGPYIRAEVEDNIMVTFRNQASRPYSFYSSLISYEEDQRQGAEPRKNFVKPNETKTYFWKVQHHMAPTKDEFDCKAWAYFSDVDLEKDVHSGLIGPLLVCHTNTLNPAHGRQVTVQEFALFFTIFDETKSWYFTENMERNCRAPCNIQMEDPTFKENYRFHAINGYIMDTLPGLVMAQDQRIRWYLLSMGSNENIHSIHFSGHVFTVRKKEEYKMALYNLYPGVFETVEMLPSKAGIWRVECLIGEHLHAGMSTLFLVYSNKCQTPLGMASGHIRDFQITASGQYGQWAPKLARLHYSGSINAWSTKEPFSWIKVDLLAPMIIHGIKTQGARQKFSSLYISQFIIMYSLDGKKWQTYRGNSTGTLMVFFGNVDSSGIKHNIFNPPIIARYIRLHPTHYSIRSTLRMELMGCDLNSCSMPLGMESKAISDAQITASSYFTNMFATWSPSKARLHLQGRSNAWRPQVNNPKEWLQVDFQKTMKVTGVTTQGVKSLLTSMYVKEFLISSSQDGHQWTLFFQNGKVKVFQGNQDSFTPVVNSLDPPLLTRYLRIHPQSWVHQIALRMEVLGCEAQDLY
The experiment can be described thus: SPR, anti-His capture, FVIII injected, 37 C. The method, then:
Binding kinetics were investigated by surface plasmon resonance using a Biacore 4000 biosensor at 37° C. Each mutant was captured from cell culture medium to a density of 40-150 RU on a CM-5 sensor chip pre-immobilised with anti-His antibody (14,000 RU). In an initial screening study, FVIII was injected over the captured mutants for 5 minutes at 1 nM and dissociation monitored for 5 minutes.
All sensorgrams were double referenced by subtraction of signals from a reference spot (containing only immobilised anti His antibody) and from a blank injection. Binding kinetics were determined by fitting the double referenced sensorgrams to a 1:1 kinetic model.
(In general: SPR reads the build-up and loss of mass on a sensor chip optically.)

B1: Hu-vWF[764-1270]-8His S764P-L765E-S766I (other)
chain: PEICRPPMVKLVCPADNLRAEGLECTKTCQNYDLECMSMGCVSGCLCPPGMVRHENRCVALERCPCFHQGKEYAPGETVKIGCNTCVCRDRKWNCTDHVCDATCSTIGMAHYLTFDGLKYLFPGECQYVLVQDYCGSNPGTFRILVGNKGCSHPSVKCKKRVTILVEGGEIELFDGEVNVKRPMKDETHFEVVESGRYIILLLGKALSVVWDRHLSISVVLKQTYQEKVCGLCGNFDGIQNNDLTSSNLQVEEDPVDFGNSWKVSSQCADTRKVPLDSSPATCHNNIMKQTMVDSSCRILTSDVFQDCNKLVDPEPYLDVCIYDTCSCESIGDCACFCDTIAAYAHVCAQHGKVVTWRTATLCPQSCEERNLRENGYECEWRYNSCAPACQVTCQHPEPLACPVQCVEGCHAHCPPGKILDELLQTCVDPEDCPVCEVAGRRFASGKKVTLNPSDPEHCQICHCDVVNLTCEACQEPGGLVVPPTDAPVSPTTLYVEDISEPPLHDFHHHHHHHH
As a reminder, the Kd is the equilibrium constant for the complex coming apart. In general, koff refers to the rate constant with which the complex falls apart. Broadly, the kon is a measure of how fast the partners come together. For B1, the Kd is 53.6 nM, the koff came to 0.055 s⁻¹ and the kon amounted to 1.03e+06 M⁻¹ s⁻¹.

B2: Hu-vWF[764-1270]-8His S764P-L765M-S766I (other)
chain: PMICRPPMVKLVCPADNLRAEGLECTKTCQNYDLECMSMGCVSGCLCPPGMVRHENRCVALERCPCFHQGKEYAPGETVKIGCNTCVCRDRKWNCTDHVCDATCSTIGMAHYLTFDGLKYLFPGECQYVLVQDYCGSNPGTFRILVGNKGCSHPSVKCKKRVTILVEGGEIELFDGEVNVKRPMKDETHFEVVESGRYIILLLGKALSVVWDRHLSISVVLKQTYQEKVCGLCGNFDGIQNNDLTSSNLQVEEDPVDFGNSWKVSSQCADTRKVPLDSSPATCHNNIMKQTMVDSSCRILTSDVFQDCNKLVDPEPYLDVCIYDTCSCESIGDCACFCDTIAAYAHVCAQHGKVVTWRTATLCPQSCEERNLRENGYECEWRYNSCAPACQVTCQHPEPLACPVQCVEGCHAHCPPGKILDELLQTCVDPEDCPVCEVAGRRFASGKKVTLNPSDPEHCQICHCDVVNLTCEACQEPGGLVVPPTDAPVSPTTLYVEDISEPPLHDFHHHHHHHH
As to B2, the Kd turned out to be 0.00241 nM, the koff was 0.000137 s⁻¹ and the kon is 5.69e+07 M⁻¹ s⁻¹.

B3: Hu-vWF[764-1270]-8His S764P-L765Q-S766I (other)
chain: PQICRPPMVKLVCPADNLRAEGLECTKTCQNYDLECMSMGCVSGCLCPPGMVRHENRCVALERCPCFHQGKEYAPGETVKIGCNTCVCRDRKWNCTDHVCDATCSTIGMAHYLTFDGLKYLFPGECQYVLVQDYCGSNPGTFRILVGNKGCSHPSVKCKKRVTILVEGGEIELFDGEVNVKRPMKDETHFEVVESGRYIILLLGKALSVVWDRHLSISVVLKQTYQEKVCGLCGNFDGIQNNDLTSSNLQVEEDPVDFGNSWKVSSQCADTRKVPLDSSPATCHNNIMKQTMVDSSCRILTSDVFQDCNKLVDPEPYLDVCIYDTCSCESIGDCACFCDTIAAYAHVCAQHGKVVTWRTATLCPQSCEERNLRENGYECEWRYNSCAPACQVTCQHPEPLACPVQCVEGCHAHCPPGKILDELLQTCVDPEDCPVCEVAGRRFASGKKVTLNPSDPEHCQICHCDVVNLTCEACQEPGGLVVPPTDAPVSPTTLYVEDISEPPLHDFHHHHHHHH
As to B3, the Kd amounted to 0.248 nM, the off-rate constant (koff) was 0.000286 s⁻¹ and the kon is 1.15e+06 M⁻¹ s⁻¹.

B4: Hu-vWF[764-1270]-8His S764P-L765H-S766I (other)
chain: PHICRPPMVKLVCPADNLRAEGLECTKTCQNYDLECMSMGCVSGCLCPPGMVRHENRCVALERCPCFHQGKEYAPGETVKIGCNTCVCRDRKWNCTDHVCDATCSTIGMAHYLTFDGLKYLFPGECQYVLVQDYCGSNPGTFRILVGNKGCSHPSVKCKKRVTILVEGGEIELFDGEVNVKRPMKDETHFEVVESGRYIILLLGKALSVVWDRHLSISVVLKQTYQEKVCGLCGNFDGIQNNDLTSSNLQVEEDPVDFGNSWKVSSQCADTRKVPLDSSPATCHNNIMKQTMVDSSCRILTSDVFQDCNKLVDPEPYLDVCIYDTCSCESIGDCACFCDTIAAYAHVCAQHGKVVTWRTATLCPQSCEERNLRENGYECEWRYNSCAPACQVTCQHPEPLACPVQCVEGCHAHCPPGKILDELLQTCVDPEDCPVCEVAGRRFASGKKVTLNPSDPEHCQICHCDVVNLTCEACQEPGGLVVPPTDAPVSPTTLYVEDISEPPLHDFHHHHHHHH
Regarding B4, the Kd stood at 0.0424 nM, the koff was 6.6e-05 s⁻¹ and the kon was 1.56e+06 M⁻¹ s⁻¹.

B5: Hu-vWF[764-1270]-8His S764P-L765G-S766I (other)
chain: PGICRPPMVKLVCPADNLRAEGLECTKTCQNYDLECMSMGCVSGCLCPPGMVRHENRCVALERCPCFHQGKEYAPGETVKIGCNTCVCRDRKWNCTDHVCDATCSTIGMAHYLTFDGLKYLFPGECQYVLVQDYCGSNPGTFRILVGNKGCSHPSVKCKKRVTILVEGGEIELFDGEVNVKRPMKDETHFEVVESGRYIILLLGKALSVVWDRHLSISVVLKQTYQEKVCGLCGNFDGIQNNDLTSSNLQVEEDPVDFGNSWKVSSQCADTRKVPLDSSPATCHNNIMKQTMVDSSCRILTSDVFQDCNKLVDPEPYLDVCIYDTCSCESIGDCACFCDTIAAYAHVCAQHGKVVTWRTATLCPQSCEERNLRENGYECEWRYNSCAPACQVTCQHPEPLACPVQCVEGCHAHCPPGKILDELLQTCVDPEDCPVCEVAGRRFASGKKVTLNPSDPEHCQICHCDVVNLTCEACQEPGGLVVPPTDAPVSPTTLYVEDISEPPLHDFHHHHHHHH
Regarding B5, the Kd worked out at 0.241 nM, the koff was 0.0122 s⁻¹ and the association rate constant (kon) amounted to 5.04e+07 M⁻¹ s⁻¹.

B6: Hu-vWF[764-1270]-8His S764P-L765K-S766I (other)
chain: PKICRPPMVKLVCPADNLRAEGLECTKTCQNYDLECMSMGCVSGCLCPPGMVRHENRCVALERCPCFHQGKEYAPGETVKIGCNTCVCRDRKWNCTDHVCDATCSTIGMAHYLTFDGLKYLFPGECQYVLVQDYCGSNPGTFRILVGNKGCSHPSVKCKKRVTILVEGGEIELFDGEVNVKRPMKDETHFEVVESGRYIILLLGKALSVVWDRHLSISVVLKQTYQEKVCGLCGNFDGIQNNDLTSSNLQVEEDPVDFGNSWKVSSQCADTRKVPLDSSPATCHNNIMKQTMVDSSCRILTSDVFQDCNKLVDPEPYLDVCIYDTCSCESIGDCACFCDTIAAYAHVCAQHGKVVTWRTATLCPQSCEERNLRENGYECEWRYNSCAPACQVTCQHPEPLACPVQCVEGCHAHCPPGKILDELLQTCVDPEDCPVCEVAGRRFASGKKVTLNPSDPEHCQICHCDVVNLTCEACQEPGGLVVPPTDAPVSPTTLYVEDISEPPLHDFHHHHHHHH
B6: the Kd amounted to 0.0218 nM, the koff stood at 0.0015 s⁻¹ and the kon was 6.88e+07 M⁻¹ s⁻¹.

B7: Hu-vWF[764-1270]-8His S764P-L765I-S766I (other)
chain: PIICRPPMVKLVCPADNLRAEGLECTKTCQNYDLECMSMGCVSGCLCPPGMVRHENRCVALERCPCFHQGKEYAPGETVKIGCNTCVCRDRKWNCTDHVCDATCSTIGMAHYLTFDGLKYLFPGECQYVLVQDYCGSNPGTFRILVGNKGCSHPSVKCKKRVTILVEGGEIELFDGEVNVKRPMKDETHFEVVESGRYIILLLGKALSVVWDRHLSISVVLKQTYQEKVCGLCGNFDGIQNNDLTSSNLQVEEDPVDFGNSWKVSSQCADTRKVPLDSSPATCHNNIMKQTMVDSSCRILTSDVFQDCNKLVDPEPYLDVCIYDTCSCESIGDCACFCDTIAAYAHVCAQHGKVVTWRTATLCPQSCEERNLRENGYECEWRYNSCAPACQVTCQHPEPLACPVQCVEGCHAHCPPGKILDELLQTCVDPEDCPVCEVAGRRFASGKKVTLNPSDPEHCQICHCDVVNLTCEACQEPGGLVVPPTDAPVSPTTLYVEDISEPPLHDFHHHHHHHH
B7: the Kd was 1.62 nM, the koff was determined as 0.0103 s⁻¹ and the kon is 6.34e+06 M⁻¹ s⁻¹.
